Data reported in article PMC8565326, “Structural dissection of sequence recognition and catalytic mechanism of human LINE-1 endonuclease”.

How the values were obtained:
[1] = target: T1, L1-EN D145A/Y226K (LINE-1 ORF2p endonuclease domain) (human, UniProt O00370 1-238, D145A;Y226K); assay: X-ray crystallography; no Mg2+; 0.1 M MES pH 6.0, 0.2 M NaCl, 30% Jeffamine ED-2003; 2.8 A; Co-crystallization: protein 16-24 mg/ml in 300 mM NaCl, 15 mM HEPES pH 7.5, 2% glycerol, 1 mM TCEP, DNA:protein 1.2:1; crystallization pH 6.0 (dna17) or 4.5 (dna14); temperature not stated; conditions: protein: recombinant; tags: N-terminal 6xHis-SUMO, cleaved with Ulp1; single-nucleotide T/A overhangs at the ends
T1 sequence (O00370 1-238 D145A/Y226K): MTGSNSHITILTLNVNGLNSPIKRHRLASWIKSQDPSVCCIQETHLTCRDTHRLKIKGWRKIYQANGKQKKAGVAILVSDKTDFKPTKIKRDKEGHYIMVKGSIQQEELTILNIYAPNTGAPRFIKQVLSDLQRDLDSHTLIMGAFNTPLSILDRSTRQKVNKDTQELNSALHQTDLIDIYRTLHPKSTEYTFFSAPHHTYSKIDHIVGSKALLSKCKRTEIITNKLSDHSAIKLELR

[2] = target: T1, L1-EN D145A/Y226K (LINE-1 ORF2p …); assay: X-ray crystallography; no Mg2+; 0.1 M sodium acetate pH 4.5, 0.2 M ammonium acetate, 15% PEG 4000; 2.8 A; Co-crystallization: protein 16-24 mg/ml in 300 mM NaCl, 15 mM HEPES pH 7.5, 2% glycerol, 1 mM TCEP, DNA:protein 1.2:1; crystallization pH 6.0 (dna17) or 4.5 (dna14); temperature not stated; conditions: protein: recombinant; tags: N-terminal 6xHis-SUMO, cleaved with Ulp1; single-nucleotide T/A overhangs at the ends

Binder | binding result [1] | binding result [2]
dna17 (dsDNA) DNA 1: GCTCCTTTTTAAGGGCTA DNA 2: AGCCCTTAAAAAGGAGCT | binds | –
dna14 (dsDNA) DNA 1: GCTCCTTTTTAAGGA DNA 2: CCTTAAAAAGGAGCT | – | binds
